Results from patent US20210032364A1 (NOMOCAN PHARMACEUTICALS, published 2021).

T1: NMC-P3 peptide (human)
T1 peptide: CPVCRQPIQMIVLTYFP

T2: NMC-P2 peptide (human)
T2 construct: Peptide corresponding to amino acids 15-25 of HDM2
T2 peptide: TTSQIPASEQE

T3: NMC-P1 peptide (human)
T3 construct: Peptide corresponding to amino acids 1-15 of HDM2
T3 peptide: MCNTNMSVPTDGAVT


Legend:
[1] = molecular target: T4, recombinant HDM2 protein (GST tagged, Abcam, Cat. No. ab188727) (human, UniProt Q00987 1-491); experiment: immunoblot
T4 construct: Bought protein, called full-length, about 83 kD with the tag; also called recombinant full-length HDM2 protein; recombinant HDM2-GST protein; not shown: GST tag at the N-terminus
T4 sequence (Q00987 whole entry): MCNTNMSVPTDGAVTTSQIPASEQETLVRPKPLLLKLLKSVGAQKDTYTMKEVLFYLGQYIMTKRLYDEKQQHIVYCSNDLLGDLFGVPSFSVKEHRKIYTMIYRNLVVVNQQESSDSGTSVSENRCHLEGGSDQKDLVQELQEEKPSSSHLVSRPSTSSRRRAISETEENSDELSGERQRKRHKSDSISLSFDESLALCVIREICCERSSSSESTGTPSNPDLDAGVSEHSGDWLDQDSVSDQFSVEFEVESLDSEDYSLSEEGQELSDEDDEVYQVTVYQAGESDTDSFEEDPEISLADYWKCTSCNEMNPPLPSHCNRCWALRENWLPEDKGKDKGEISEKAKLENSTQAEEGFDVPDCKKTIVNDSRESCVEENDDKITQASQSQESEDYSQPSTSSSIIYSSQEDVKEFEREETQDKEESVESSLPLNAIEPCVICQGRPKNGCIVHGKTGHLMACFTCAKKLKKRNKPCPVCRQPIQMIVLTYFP
Procedure: Western Blot: As for immunoblots, 1 μg/well of recombinant HDM2 protein (GST tagged, Abcam, Cat. No. ab188727) was separated on 8-16% sodium dodecyl sulfate (SDS) polyacrylamide gel and proteins were then transferred to polyvinylidene difluoride (PVDF) membrane. […] The membrane was then washed×3 times (10 minutes each) and incubated for 1 hour with corresponding HRP-conjugated secondary antibody (Goat anti-Mouse IgG (H&L), F(ab′)2 Frag Cross-adsorbed HRP (HRP-GaM F(ab′)2), ThermoFisher, Cat. No. A24524) diluted 1:5000 in 1% BSA-PBS. The membrane was then washed×3 times and incubated with Pierce ECL Plus Western Blotting Substrate (ThermoFisher, Cat. No. #32132) for 10 min before developing on a LICOR Scanner.

NMC-P3 peptide [2] = molecular target: T1, NMC-P3 peptide; experiment: peptide-ELISA, plate-bound peptide
Procedure: (§1) Peptide-ELISA Methodology: 5 μg/ml of NMC-P1, NMC-P2 or NMC-P3 peptide antigen was dried onto a 96-well ELISA plate overnight. Plates were then blocked with 5% BSA in 1× phosphate-buffered saline (PBS) (100 μl/well) for 2 hours at room temperature. Microplate wells were then washed 5 times with 300 μl of ice cold lx PBS. […] After 2 hours, wells were washed 5 times with 300 μl ice-cold PBS/well and 100 μl secondary antibody (HRP-labeled Goat anti-Mouse F(ab′)2 H&L cross-adsorbed secondary antibody (HRP-GaM F(ab′)2), ThermoFisher, Cat. No. A24524) diluted 1:2500 to 1:5000 in PBS-1% BSA solution were added and the incubation continued at room temperature. After 1 hour, the wells were washed again 5 times with 200 μl of ice-cold PBS and 50 μL of the TMB Substrate Solution (1-StepTM Ultra TMB-ELISA, ThermoFisher, Cat. No. 34028) were added to each well and color was allowed to develop for 30 minutes at room temperature. The reaction was stopped by addition of 50 μL of stop solution (ThermoFisher, Cat. No. SSO4) to each well and absorbance of each well was read immediately for optical density (OD) at 450 nm.

NMC-P2 peptide [3] = molecular target: T2, NMC-P2 peptide; experiment: peptide competition in cell-ELISA on intact MIA PaCa-2 cells
NMC-P1 peptide = molecular target: T3, NMC-P1 peptide; experiment: peptide-ELISA, plate-bound peptide
Procedure: as §1

NMC-P2 peptide [4] = molecular target: T2, NMC-P2 peptide; experiment: peptide-ELISA, plate-bound peptide
Procedure: as §1

NMC-P3 peptide [5] = molecular target: T1, NMC-P3 peptide; experiment: competition peptide-ELISA, soluble peptide pre-incubated with the antibody
Procedure: as §1

binding result [1] | binding result (NMC-P3 peptide [2]) | binding result (NMC-P2 peptide [3]) | binding result (NMC-P1 peptide) | binding result (NMC-P2 peptide [4]) | binding result (NMC-P3 peptide [5]) | Binder
binds | binds | no binding | – | – | – | monoclonal antibody NMC-303 (antibody, V domains shown) VH: QVQLQQPGAELVKPGASVKLSCKASGYTFTSYYMYWVKQRPGQGLEWIGGINPRNGGTNFNEKFKNKATLTADKSSTTAYMQLSSLTSEDSAVYYCTRSGYYAMDYWGQGTSVTVSS VL: DIQMTQTTSSLSASLGDRVTISCRASQDISNFLNWYQQKPDGTVKLLIYYTSRLHSGVPSRFSGSGSGTDYSLTISNLEQEDIATYFCQQGNTLPRTFGGGTKLEIK
– | – | – | binds | no binding | no binding (tested: 10 µl/ml) | monoclonal antibody NMC-103 (antibody, IgG1, V domains shown) VH: EVQLQESGGGLVQPGGSLRLSCTTSGFTFTHYYMSWVRQPPGKALEWLGFIRNKAKGYTAEYSASVKGRFTISRDNSQSILYLQMNTLRPEDSATYYCARDIGDNWGQGTLVTVSS VL: DIVMTQAAFSNPVTLGTSASISCRSSKNLLHSNGITYLYWYLQRPGQSPQLLISRVSNLASGVPNRFSGSESGTDFTLRISRVEAEDVGVYFCAQLLELPYTFGGGTKLEIK
– | no binding | – | no binding | binds | – | monoclonal antibody NMC-204 (antibody, IgG3, V domains shown) VH: EVQLQESGSVLVRPGASVKLSCKASGDTLSGSWMHWAMQRPGQGLEWIGEIHLNRGTTNYNEKFKGKATVTVDTSSSTAYVDLSSLTSEDSAVYYCARSPGFAYWGQGTLVTVSA VL: GIVMTQAAPSVPVTPGESVSISCRSSKSLLHSNGNSYLYWFLQRPGQSPQLLIYRMSNLASGVPDRFSGSGSGTAFTLRITRVEAEDVGVYYCMQHLEYPFTFGSGTKLEIK
